Source: PMC4833398

Legend:
[1] = target: 1VH8-scaffolded V1V2 from HIV-1 strain CAP256-SU (trimeric scaffold); assay: crystal structure
[2] = target: these trimeric scaffolded V1V2s (1VH8- and 4F2K-scaffolded), expressed and purified in GnTI- cells; assay: SPR

| Molecule | stoichiometry N [1] | Kd [2] |
| --- | --- | --- |
| 1VH8-scaffolded V1V2 from HIV-1 strain CAP256-SU (trimeric scaffold) | 3 |  |
| bNAb CH01 (antibody, V domains shown) VH: EVQLVESGANVVRPGGSLRLSCKASGFIFENFGFSWVRQAPGKGLQWVAGLNWNGGDTRYADSVKGRFRMSRDNSRNFVYLDMDKVGVDDTAFYYCARGTDYTIDDAGIHYQGSGTFWYFDLWGRGTLVSVSS VL: EIVLAQSPGTLSLSPGERATLSCRASHNVHPKYFAWYQQKPGQSPRLLIYGGSTRAAGIPGKFSGSGSGTDFTLTISRVDPEDFAVYYCQQYGGSPYTFGQGTKVEIK |  | 20 to 50 µM |
| bNAb PG9 (antibody, V domains shown) VH: QRLVESGGGVVQPGSSLRLSCAASGFDFSRQGMHWVRQAPGQGLEWVAFIKYDGSEKYHADSVWGRLSISRDNSKDTLYLQMNSLRVEDTATYFCVREAGGPDYRNGYNYYDFYDGYYNYHYMDVWGKGTTVTVSS VL: QSALTQPASVSGSPGQSITISCNGTSNDVGGYESVSWYQQHPGKAPKVVIYDVSKRPSGVSNRFSGSKSGNTASLTISGLQAEDEGDYYCKSLTSTRRRVFGTGTKLTVL |  | 0.024 to 0.5 µM |
